{"source": "the nanobody polyreactivity screen of Harvey et al. (2022)", "data": [{"assay": "yeast display, Sf9 membrane polyspecificity reagent, FACS + sequencing; frameworks hold sequencing errors", "how_it_was_run": "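Nanobodies from a synthetic yeast display library (Saccharomyces cerevisiae BJ5465), induced 36–48 hours with galactose, were stained 1 hour at 4 °C with 10% biotinylated, detergent-solubilized Sf9 membrane reagent, enriched on streptavidin microbeads, then FACS-sorted. Anti-HA (expression) and streptavidin (reagent binding) fluorescence set low and high (top ~1%) gates. Polyreactivity labels come from the gate of origin. Genes were colony-PCR amplified, MiSeq 2 × 250 sequenced and filtered by CDR length.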", "values": [{"sequence": "QVQRVESGGGLVQAGGSLRLSCAASGSIFSSNVMGWYRQAPGKEREIVAAITTGGSTNYADSVKGRFTISRDNAKNTVYLQMYCLKREDTAFYYCSFSYGYYLFVDWGYGCWGQGSQVTVSS", "polyreactivity (PSR sort gate)": "low polyreactivity"}, {"sequence": "QVQLVESGGGLVQAGGSLRLSCAASGSIFSNNAMGWYRQAPGKERELVAAITRSGGNTYYADSVKGRFTISRDNAKNTVYLQMNSLKPEDTAVYYCNAVHLRKMYYWGQGTQVTVSS", "polyreactivity (PSR sort gate)": "high polyreactivity"}, {"sequence": "QVQLVESGGGLVQAGGSLRLSCAASGSISYFNDMGWYRQAPGKERELVAAIRDSGGITYADSVKGRFTISRDNAKNTVYLQMNSLKPEDTAVYYCATYGNEIYDYWGLGTQVTVSS", "polyreactivity (PSR sort gate)": "low polyreactivity"}, {"sequence": "QLQLVESVGGLVQAGGSLRLSCAGSGRIFGRSAMGWYTHAPGKHRALVAAISRSGGSTYYADSVKGRVTISRDKAKNTVYLQMYSLKPEDTAVYNCNRRYITYNDDYWGQGTQVTVSS", "polyreactivity (PSR sort gate)": "high polyreactivity"}, {"sequence": "QVQLVESGGGLVQAGGSLRLSCAASGRIFRLYVMGWYRQAPGKERELVAAITRGGGTYYADSVKGRFTISRDNAKNTVYLQMNSLKPEDTAVYYCAVGTYTIYSGTLYDYKYYWGQGTQVTVSS", "polyreactivity (PSR sort gate)": "low polyreactivity"}, {"sequence": "QVQLVESGGGLVQAGGSLRLSCAASGRTSYTNAMGWYRQAPGKERELVAAINYSGGSTYYADSVKGRFTISRDNAKNTVYLQMNSLKPEDTAVYYCAADWDWWYQEFDYWGQGTQVTVSS", "polyreactivity (PSR sort gate)": "high polyreactivity"}, {"sequence": "QVQLVESGGGLVQAGGSLRLSCAASGSIFSYYVKGWYRQAPGKERELVAVITDRGGRTYYADSVKGRFTISRDNAKNPVYLQMNSLKPEDTAVYYCNKYIRRYLIYGSWGQGTQVTVSS", "polyreactivity (PSR sort gate)": "high polyreactivity"}, {"sequence": "QVQLVESGGGLVQAGGSLRLSCAASGFTFPYYAMGWYRQAPGKERELVAVISRSGGSTYYADSVKGRFTISRDNAKNTVYLQMNSLKPEDTAVYYCAKRYSLTGGKRTGYYWGQGTQVTVSS", "polyreactivity (PSR sort gate)": "high polyreactivity"}, {"sequence": "QVQLVESGGCLVQAGGSLRLSCAASGITFRRYTMGWYRQAPGKERELVATISLSDGNTYYADSVKGRFTISRDNAKNSVYLQMNSLKPEDTAVYYCNADSTTQVYDYWGQGTQVTVSS", "polyreactivity (PSR sort gate)": "low polyreactivity"}, {"sequence": "QVQLVESGGGLVQAGGSLRLSCAAYGSIFSTYAMGWYRQAPGKERELVAAISRSGGSTYYADSVKGRFTISRDNAKNTVYLQMNSLKPEDTAVYYCAKVGRRQRYDYWGQGTQVTVSS", "polyreactivity (PSR sort gate)": "high polyreactivity"}, {"sequence": "QDQLVESGGGLVQAGGSLRLSCAASGRTFYRYAMGWYRQAPGKERELVASITRGTSTNYADSVKGRFTISRDNAKNTVYLQMNSLKPEDTAVYYCNRRIFGGQRMYYWGQGTQVTVSS", "polyreactivity (PSR sort gate)": "high polyreactivity"}, {"sequence": "QVQLVESGGGLVQAGGSLRLICAASGRIFNRNAMGWYRQAPGKERELVASISSGGRTNYADSVKGRFTISRDNAKNTVYLQMNSLKPEDTAVYYCAAKSPRILLDYWGQGTQVTVSS", "polyreactivity (PSR sort gate)": "low polyreactivity"}, {"sequence": "QVQLVESGGGLFQAGGSLRLSCAASGSTLWRNAMGWYRQATGKERELVAAITRRGGITYYADSVKGRFTISRDNAKNTVYLQMNSLKPEDTAVYYCNAVRSTDGSDYWGQGTQVTVSS", "polyreactivity (PSR sort gate)": "high polyreactivity"}, {"sequence": "QVQLVESGGGLVQAGGSLRLSCAASGLTFGDYAMGWYRQAPGKEWELVAVITSSGSTYYADSVKGRFTISRDNAKNTVYLQMNSLKPEDTAVYYCATSAPAYRWRERYYYWGQGTQVTVSS", "polyreactivity (PSR sort gate)": "high polyreactivity"}, {"sequence": "QVQLVESGGGLVQAGGSLRFSCAASGSIYRNNAIGWYRQAPGKERELVAAITSTGTGTYYADSVKGRFTISRDNAKNTVYFQMNSLKPEDTAVYYCAVDDDFEFGYWGQGTQVTVSS", "polyreactivity (PSR sort gate)": "low polyreactivity"}, {"sequence": "QVQHVESGGGLVQAGGSLRLSCAASGSNFGYVMGWYRQAPGKERELVAAISRSGGSTYYADSVKGRFTISRDNAKNTVYLQMNSLKPEDTAVYYCAARLYSSSYNSEQYYYWGQGTQVTVSS", "polyreactivity (PSR sort gate)": "high polyreactivity"}, {"sequence": "QVQLVESGGGLVQAGGSLRLSCAASGSTFYRNAMGWYRQAPGKERAFVAAISFRGGGTYADSVKGRFTISRDNAKNTVYLQMNSLKPEDTAVYYCAADHLSYPRRYEYWGQGTQVTVSS", "polyreactivity (PSR sort gate)": "low polyreactivity"}, {"sequence": "QVQLVESGGGLVQAGGSLRLSCDASGRIFGLYDMGWYRQAPGKERELVAAISRGGGSTYYADSVKGRFTISRDNAKNTVYLQMNSLKPEDTAVYYCATGLGYFSRLDYWGQGTQVTVSS", "polyreactivity (PSR sort gate)": "low polyreactivity"}, {"sequence": "QVQLVESGGGLVKAGGSLRLSCAASGNIFRRYAMGWYRQARGKERELVAAITWRGGNTYYADSVKGRFTISRDNAKNTVYLQMNCLKPEDTAVYYCNRVYRQRLGRDYWGLGTQVTVSS", "polyreactivity (PSR sort gate)": "high polyreactivity"}, {"sequence": "QVQLVESGGGLVQAGGSLRLSCAASGRPFGRYAMGWYRPAPGKERELVAAITGSGGSTYYADSVKGRYTMSRDNAKNTVYLQMNSLKPEDTAVYYCAAPQRYYYTAMGYWGQGTQVTVSS", "polyreactivity (PSR sort gate)": "high polyreactivity"}, {"sequence": "QVQLVESGGGLVQAGGSLRLSCAASGRIFLRNAMGWYRQAPGKERELVATITSRGGSTYYADAVKGRFTISRDNAKNTVYLQMNSLKPVDTEVYDCAADPRRYRGFGYVYGGFYYWGQGTQVTVSS", "polyreactivity (PSR sort gate)": "low polyreactivity"}, {"sequence": "QVQLVESGGGLVQAGGSLRLSCAASGRTYPAYAMGWYRQAPGKERELVAAITYDGGTTYYADSVKVRFTISRDNAKNTVYLQMNSLKPEDTAVYYSAAVYDEDQYDYWGQGTQVTVSS", "polyreactivity (PSR sort gate)": "low polyreactivity"}, {"sequence": "QVQLVESGGGLVQAGGSLRLSCAASGSTFGQYAMGWYRQAPGKERELVAAISSGGRTNYADSVKGRFTISRDNAKNTVYLQMNSLKPEDTAVYYCAARYYFPFRRFRRMDYWGQGTQVTVSS", "polyreactivity (PSR sort gate)": "high polyreactivity"}, {"sequence": "QVQLVESGGGLVQAGGSLRLSCAASGSIFFRYAMGWYRQATGKERELVARISWGGGRTYYADSVKGRFTISRDNAKNTVYLQMNSLKPEDTAVYYCNRAYWVNPGGFEYWGQGTQVTVSS", "polyreactivity (PSR sort gate)": "high polyreactivity"}, {"sequence": "QVQIEESRGGLVQAGGSLRLSCAASGRTFYYYAMGWYRQAPGKERELVAAISYRGGSTYYADSVKGRFTISRDNAKNTVFLQLNSLKPEDTAVYYCAKYPHPLKYPGYPSEFDYWGQGTQVSVSS", "polyreactivity (PSR sort gate)": "low polyreactivity"}, {"sequence": "QVQLRESGCGLVQAGGNLRLSCAARGNIFDADIMGWYRQAPGKERELVASITDGGSTNYADSVRCRFTISRDNAKNTVYLQMNSLKPEDTAVYYCTAIAYPDIPTYFDHDSDYFYWGQGTQVTVSS", "polyreactivity (PSR sort gate)": "high polyreactivity"}, {"sequence": "QVQLVESGGGLVQAGGSLLLSCAPSGSTIPSYAMGWYRQSPGKERELVASITYSDGTTRYADSVKGRFTISRDNAKNTVYLQMNSLKPEDTAVYYCNAVYYREGMDYWGQGTQVTVSS", "polyreactivity (PSR sort gate)": "low polyreactivity"}, {"sequence": "QVQLVESGGGLVQAGGSLRLSCAASGNILVENAMGWYRQAPGKERELVAVSTSGTSTYADSVKGRFTISRDNAKNSVSFQMNSLKPEDTAVYYCNARRINTLYDSWGQGTLVTVSS", "polyreactivity (PSR sort gate)": "low polyreactivity"}, {"sequence": "QVQLVESGGGLVQAGGSLRLSCAASGRIFHFYVMGWYRQAPGKERELVASITRGGNTNYADSVKGRFTISRDNAKNTVYLQMNSLKPEDTAVYYCNGEGYYTRDDSWGQGTQVTVSS", "polyreactivity (PSR sort gate)": "low polyreactivity"}, {"sequence": "QVQLVESGGGLVQAGGSLRLSCAASGSTFFGNAMGWYRQAPGKERELVAAITSGGSTNYADSVKGRFTISRDNAKNTVYFQMNSLKPEDTAVYYCAKPSRWGWTGFYAYDYWGQGTQVTVSS", "polyreactivity (PSR sort gate)": "low polyreactivity"}, {"sequence": "QVQLVESGGGLVQAGGSLRLSCAASGSIFGYNAMGWYRQAPGKERELVAVINASGASTYYADSVKGRFTISRDNAKNTVYLQMNSLKPEDTAVYYCAKDPFPFPGGDYWGQGTQVTVSS", "polyreactivity (PSR sort gate)": "low polyreactivity"}, {"sequence": "QVQLQESGGGLVQAGGSLGCAASGNISTRSEMGWYRQAPGKEREFVATINSGGITNYADSVKGRFTISRDNAKNTVYLRMNSLKPEDTAVYYRAVYGDFSDPYDYWGQGTQVTVSS", "polyreactivity (PSR sort gate)": "low polyreactivity"}]}]}
